Results reported in patent US12365732 (23ANDME, dated 2025).

Tests used:
[1] = target: T1, hu-CD96 isoform 2 on CHO cells (human, UniProt P40200 22-585); experiment: FACS, Ab 0.08 nM
T1 construct: also called CHO-CD96 (isoform 2); CD96-CHOs
T1 sequence: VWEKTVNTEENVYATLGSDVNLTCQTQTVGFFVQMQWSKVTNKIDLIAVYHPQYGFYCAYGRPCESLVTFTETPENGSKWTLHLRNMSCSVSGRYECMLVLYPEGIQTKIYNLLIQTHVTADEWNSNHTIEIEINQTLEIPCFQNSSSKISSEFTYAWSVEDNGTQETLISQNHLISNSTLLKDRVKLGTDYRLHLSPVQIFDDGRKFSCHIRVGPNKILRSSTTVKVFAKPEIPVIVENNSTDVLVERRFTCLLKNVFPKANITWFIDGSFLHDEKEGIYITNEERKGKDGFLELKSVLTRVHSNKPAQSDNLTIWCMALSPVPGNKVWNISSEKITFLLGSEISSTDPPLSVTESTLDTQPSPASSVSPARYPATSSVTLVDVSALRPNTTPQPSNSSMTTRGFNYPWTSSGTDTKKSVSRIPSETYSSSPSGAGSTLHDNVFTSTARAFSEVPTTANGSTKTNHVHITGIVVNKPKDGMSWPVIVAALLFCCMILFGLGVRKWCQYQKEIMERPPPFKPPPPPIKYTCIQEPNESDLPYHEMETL
Experimental: (§1) Isoform 1 of hu-CD96 (Origene, catalog #RC213845) was transiently expressed in HEK293T cells following standard lipofectamine or Fugene transfection protocol. […] Cells were washed, and binding was detected by incubation with anti-mouse IgG-FITC (Biolegend, catalog #406001) for 20 minutes at 4° C. Cell binding was analyzed by flow cytometry with a CytoFLEX (Beckman Coulter). Binding curves were calculated as a percentage of cells positive for bound antibody.
(§2) Isoform 2 of hu-CD96 (DNA construct: Origene, catalog #RC221005) was expressed on a single-cell-clone-derived CHO stable cell line. Binding of the anti-CD96 antibodies to the CHO cells were determined as described above with isoform 1 of hu-CD96.

[2] = target: T1, hu-CD96 isoform 2 on CHO cells; experiment: FACS, Ab 0.016 nM
Experimental: as §1, §2

[3] = target: T1, hu-CD96 isoform 2 on CHO cells; experiment: FACS, Ab 10 nM
Experimental: as §1, §2

[4] = target: T2, cynomolgus monkey CD96 on cynomolgus monkey PBMCs (cynomolgus monkey, UniProt A0A2K5TWV6 22-569); experiment: FACS, Ab 0.64 nM
T2 construct: whole, on cells
T2 sequence: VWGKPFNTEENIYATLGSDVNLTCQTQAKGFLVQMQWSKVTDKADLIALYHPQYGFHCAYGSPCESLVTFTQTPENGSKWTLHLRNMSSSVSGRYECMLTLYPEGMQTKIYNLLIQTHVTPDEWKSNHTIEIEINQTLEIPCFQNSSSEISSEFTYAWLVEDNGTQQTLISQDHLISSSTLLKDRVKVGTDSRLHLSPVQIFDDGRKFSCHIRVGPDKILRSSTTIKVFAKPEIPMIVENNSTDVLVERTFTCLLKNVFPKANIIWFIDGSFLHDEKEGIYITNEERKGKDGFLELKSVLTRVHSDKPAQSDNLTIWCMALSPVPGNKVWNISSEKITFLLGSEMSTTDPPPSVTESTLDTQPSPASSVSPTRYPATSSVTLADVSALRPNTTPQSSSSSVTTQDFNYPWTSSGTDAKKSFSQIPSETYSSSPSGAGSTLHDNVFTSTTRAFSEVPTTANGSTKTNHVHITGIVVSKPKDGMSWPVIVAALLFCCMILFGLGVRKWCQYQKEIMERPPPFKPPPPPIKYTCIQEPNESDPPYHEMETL
Experimental: The ability of the anti-CD96 antibodies to bind primary immune cells from human and cynomolgus monkey with lower level of receptor expression was measured. Human PBMCs (StemCell Technologies, catalog #70025) and cynomolgus monkey PBMCs (Primate Biologicals, catalog #CM-MC) were incubated with human TruStain FcX (Biolegend, catalog #422302) for 10 minutes at 4° C., followed by incubation with an anti-CD96 antibody for 20 minutes at 4° C. Cells were washed and the anti-CD96 antibody binding was detected by incubation with anti-mouse IgG-PE (Thermo Fisher, catalog #M30204) or anti-human IgG (Fab) 2-PE (Thermo Fisher, catalog #H10104) for 20 minutes at 4° C. Cells were washed, and immune subtypes were labeled with anti-CD3 (BD, catalog #557705), anti-CD4 (Biolegend, catalog #317424) and anti-CD8 (BD, catalog #557760) for 20 minutes at 4° C. Cell binding was analyzed by flow cytometry with a CytoFLEX (Beckman Coulter). Binding curves were calculated as a percentage of cells positive for bound antibody in the cell type of interest.

cy-CD96 Fc = target: T3, cy-CD96 Fc (cynomolgus monkey, biotinylated in Table 16); experiment: SPR 37C, biotin-CD96-Fc captured, IgG analyte
T3 construct: also called biotinylated cy-CD96-Fc
Experimental: (§3) Briefly, a 1:4 dilution of Biotin CAPture Reagent (GE Healthcare) into HBS-EP buffer (0.01 M HEPES pH 7.4, 0.15 M NaCl, 3 mM EDTA, 0.005% Surfactant P20) was applied to the chip at 2 µL/min flow rate. For the kinetics measurements, 20 nM biotinylated hu-CD96-Fc and cy-CD96-Fc was captured at 10 µL/min to achieve ~50 response units in the second flow cell (FC2). FC1 was kept as a reference. Next, 4-fold serial dilutions of IgG in HBS-P buffer (0.01 M HEPES pH 7.4, 0.15 M NaCl, 0.005% surfactant P20) from low (3.125 nM) to high (200 nM) concentration were injected (flow rate: 10 µL/min) at 37° C. The sensorgram was recorded and subject to reference and buffer subtraction before evaluating by BIACORE® 8K Evaluation Software (version 1.1.1.7442). Association rates ($kon$) and dissociation rates ($koff$) were calculated using a simple one-to-one Langmuir binding model. The equilibrium dissociation constant (K_D) value was calculated as the ratio of $koff/kon$.

hu-CD96 Fc = target: T4, hu-CD96 Fc (human, biotinylated in Table 16); experiment: SPR 37C, biotin-CD96-Fc captured, IgG analyte
T4 construct: also called biotinylated hu-CD96-Fc
Experimental: as §3

Binder | % positive [1] [%] | % positive [2] [%] | % positive [3] [%] | % positive [4] [%] | Kd (cy-CD96 Fc) [nM] | koff (cy-CD96 Fc) [s⁻¹] | kon (cy-CD96 Fc) [M⁻¹ s⁻¹] | Kd (hu-CD96 Fc) [nM] | koff (hu-CD96 Fc) [s⁻¹] | kon (hu-CD96 Fc) [M⁻¹ s⁻¹]
7E5, purified hybridoma antibody (antibody, V domains shown, murine hybridoma IgG) VH: QVQLKESGPGLVAPSQSLSIICTVSGFSLTNYGIHWIRQPPGKGLEWLGIIWAGGSTNYNSALMSRLTISKDNSKSQVFLKMNSLQTNDTAIYYCARVSMMGFAYWGQGTLVTVSA VL: QAVVTQESALTTSPGETVTLTCRSSTGAVTTSNYANWVQEKPDHLFTGLIGGTNNRAPGVPARFSGSLIGDKAALTITGAQTEDEAIYFCSLWYGSHWVFGGGTKLTVL | 24.6 | 3.6 | 56.1 |  |  |  |  |  |  | 
10G1 (clone 10G1.3G8), purified hybridoma antibody (antibody, V domains shown, murine hybridoma IgG) VH: QIQLVQSGPELKKPGETVKISCKASGYPFTTYGMSWVKQAPGKGLKWMGWINTDSGVPTYADDFKGRFAFSLETSANTAYLQINSLKNEDAATYFCARNIYYGWGNFDYWGQGTILTVSS VL: DILMTQSPTTLSVTPGETVSLSCRASQDIYRNLHWYQQKSQGTPRLLIKHASDSISGIPSRFTGSGSGTDFTLSINSVKPEDEGIYYCLQGYSMPYTFGGGTKLEIK | 9.4 | 0.4 | 39.2 |  |  |  |  |  |  | 
h10G1 IgG (humanized 10G1) (antibody, V domains shown, human IgG1 N297G) VH: EIQLVQSGSELKKPGASVKVSCKASGYPFTTYGMSWVRQAPGQGLEWMGWINTDSGVPTYADDFKGRFVFSLDTSVSTAYLQISSLKAEDTAVYFCARNIYYGWGNFDYWGQGTLVTVSS VL: EIVMTQSPDFQSVTPKEKVTITCRASQDIYRNLHWYQQKPDQTPKLLIKHASDSISGIPSRFSGSGSGTDFTLTINSLEAEDAAAYYCLQGYSMPYTFGGGTKVEIKG |  |  |  | 51.2 | 1.13 | 0.00789 | 6.99e+06 | 0.64 | 0.000393 | 612000
9H4, purified hybridoma antibody (antibody, V domains shown, murine hybridoma IgG) VH: EVQLLETGGGLVKSGGSLKLSCAASGFTFSDYYMYWVRQTPEKRLEWVAAISDDGTYTYYPDSVKGRFTISRDNANNYLYLQMSSLKSEDTAIYYCAKAGSYDYFDVWGAGTTVTVSS VL: DIVLTQSPASLAVSLGQRAIISCKASQSVTFADTGLMHWYQQKPGQQPKLLIYRASNLEVGVPTRFSGSGSGTDFTLNIHPVEEEDVATYYCQQSREYPWTFGGGTKLEIK | 3.1 | 0.3 | 46.1 |  |  |  |  |  |  | 
mAb1.v7 IgG (humanized 12F8) (antibody, V domains shown, human IgG1 N297G) VH: EVQLVQSGAEVKKPGASVKVSCKASGFTFTNNWMHWVRQAPGQGLEWIGMIHPNSGITNINEKFKNRVTMTTDTSTSTAYMELRSLRSEDTAVYYCRSDGTYEGYFDYWGQGTLVTVSS VL: DIQLTQSPSSLSASVGDRVTITCKASQNVGTAIVWYQQKPGKAPKVLIYSASTRYTGVPSRFSGSGSGTDFTLTISSLQPEDFATYYCQQYSSSPLTFGQGTKVEIKG | 1.4 | 0.4 | 44.8 |  |  |  |  |  |  | 
mAb1.v7.NGS9 IgG (antibody, V domains shown, human IgG1 N297G) VH: EVQLVQSGAEVKKPGASVKVSCKASGFTFTNNFMHWVRQAPGQGLEWIGMIHANSGITNINEKFKNRVTMTTDTSTSTAYMELRSLRSEDTAVYYCRSDGVYEGYFDYWGQGTLVTVSS VL: DIQLTQSPSSLSASVGDRVTITCKASQNVGTAIVWYQQKPGKAPKVLIYSASTRYTGVPSRFSGSGSGTDFTLTISSLQPEDFATYYCQQYSSSPLTFGQGTKVEIKG |  |  |  | 71 | 2.88 | 0.000734 | 255000 | 0.2 | 5.42e-05 | 266000
mAb1.v7.NGS11 IgG (antibody, V domains shown, human IgG1 N297G) VH: EVQLVQSGAEVKKPGASVKVSCKASGFTFTNNFMHWVRQAPGQGLEWIGFIHANSGITNINEKFKNRVTMTTDTSTSTAYMELRSLRSEDTAVYYCRSDGVYEGYFDYWGQGTLVTVSS VL: DIQLTQSPSSLSASVGDRVTITCKASQNVGTAIVWYQQKPGKAPKVLIYSASTRYTGVPSRFSGSGSGTDFTLTISSLQPEDFATYYCQQYSSSPLTFGQGTKVEIKG |  |  |  | 74.3 | 1.52 | 0.000513 | 338000 | 0.08 | 1.38e-05 | 173000
mAb1.v7.NGS10 IgG (antibody, V domains shown, human IgG1 N297G) VH: EVQLVQSGAEVKKPGASVKVSCKASGFTFTNNFMHWVRQAPGQGLEWIGFIHANSGITNINEKFKNRVTMTTDTSTSTAYMELRSLRSEDTAVYYCRSDGIYEGYFDYWGQGTLVTVSS VL: DIQLTQSPSSLSASVGDRVTITCKASQNVGTAIVWYQQKPGKAPKVLIYSASTRYTGVPSRFSGSGSGTDFTLTISSLQPEDFATYYCQQYSSSPLTFGQGTKVEIKG |  |  |  | 73.1 | 0.49 | 0.000374 | 767000 | 0.01 | 1.84e-06 | 144000
